Experimental data as given in patent publication US20150342943A1, “METHODS OF TREATING LIVER DISEASE” (Gilead Sciences, Inc., priority 2014, published 2015).

B1: AB0023: murine anti-LOXL2 antibody, heavy chain variable region SEQ ID NO: 15, light chain variable region SEQ ID NO: 16 (antibody, V domains shown)
VH: MEWSRVFIFLLSVTAGVHSQVQLQQSGAELVRPGTSVKVSCKASGYAFTYYLIEWVKQRPGQGLEWIGVINPGSGGTNYNEKFKGKATLTADKSSSTAYMQLSSLTSDDSAVYFCARNWMNFDYWGQGTTLTVSS
VL: MRCLAEFLGLLVLWIPGAIGDIVMTQAAPSVSVTPGESVSISCRSSKSLLHSNGNTYLYWFLQRPGQSPQFLIYRMSNLASGVPDRFSGSGSGTAFTLRISRVEAEDVGVYYCMQHLEYPYTFGGGTKLEIK
modifications: anti-LOXL2 antibody AB0023 heavy chain variable region; anti-LOXL2 antibody AB0023 light chain variable region

How the values were obtained:
[1] = tested on: HSCs; test: Quantitative RT-PCR of TGF-β1-induced gene transcription in HSCs; type: cell-based, human; details: pre-treated HSCs, TGF-β1 5 ng/ml for 48 hrs
Experimental: For gene expression assays, RNA was isolated using commercially available kit (Qiagen Midikit), converted to cDNA (Retroscript Kit, Ambion) and tested for expression of genes involved in fibrosis with human probes on ABI 7300 (Applied Biosystems). All assays were performed in triplicate.
Quantitative RT-PCR was used to determine the effects of compounds to inhibit TGF-β1-induced gene transcription of αSMA, COL1α1, […], and lumican.

[2] = tested on: primary human HSCs; test: α-SMA Assay in TGF-β-stimulated hepatic stellate cells; type: cell-based; details: 24 h, read-out: α-SMA Assay EC50
Experimental: For quantification of α-SMA protein expression, HSC's were plated at a density of 10,000 cells/well in collagen coated 96-well plates (BD-Biosystems). […] HSCs were fixed in 4% PFA, permeabilized in 0.02% Triton-X-100, blocked for 30 min. and stained with an anti-α-SMA specific antibody (Sigma) and a flourescently labeled secondary antibody (Invitrogen). α-SMA expression was quantified on a fluorescent plate reader.

[3] = tested on: primary human HSCs; test: Collagen Assay (Sircol) in TGF-β-stimulated hepatic stellate cells; details: read-out: Collagen Assay EC50
Experimental: Collagen synthesis, α-SMA (smooth muscle actin) expression, and changes in transcript expression were measured in response to stimulation from ROS (reactive oxygen species) and TGF-β.
Commercially available primary human HSCs (Sciencell) were plated at a density of 250,000 cells/well on 12-well plates (Corning). HSCs were co-stimulated with 5 ng/mL TGF-β+/− ASK1 inhibitor compounds. Collagen production was assessed by Sircol Assay where extracellular collagen was digested with pepsin, followed by acid extraction, neutralization, and colometric quantification using the Sircol assay kit according to the manufacturer's protocols (BioColor).

[4] = tested on: male C57BL/6 mice; test: Interventional NASH model (treatment from day 240 of high fat, high cholesterol, high sugar diet); type: in vivo
Experimental: Liver homogenate (1.5 mL) was transferred to 1.5 mL Eppindorf tubes and centrifuged at 14,000 rpm for 10 min. Supernate was transferred to 96-deep well plate and diluted 1:1 with 4 M HCl. HYP levels were quantified using a commercially available hydroxyproline assay (Quickzyme Biosciences).
Commercially available high fat, high cholesterol, high sugar diet was administered continuously to 12 week old male C57BL/6 mice for 320 days. […] Animal cohorts (n=15) were sacrificed after 80 days of treatment. Collagen synthesis and hydroxyproline (HYP) were measured using D2O labeling. Second harmonic imaging was used to quantitate collagen morphometry.
Commercially available high fat, high cholesterol, high sugar diet was administered continuously to 12 week old male C57BL/6 mice for 320 days. […] At 80 days of treatment, collagen synthesis and HYP levels in each group (n=15) were determined using D2O labeling. […] Liver homogenate (1.5 mL) was centrifuged at 14,000×rpm for 10 min and the resulting supernate was d diluted 1:1 with 4 M HCl. HYP levels were quantified using a commercially available hydroxyproline assay (Quickzyme Biosciences).
In addition, immunohistochemistry and immunoblot analysis were used to characterize the levels of phospho-p38 (p-p38), phospho-JNK1 (p-JNK1), and phospho-MKK4 (p-MKK4) proteins.

[5] = tested on: Mdr2^−/− BALB/c; test: Interventional PSC model; type: in vivo, mice
Experimental: Control groups received treatment with either vehicle or an unrelated isotype-matched control IgG (i.e. a murine IgG1). Portal venous pressure
(PVP) was measured invasively by direct cannulation of the portal vein with a micro-tip pressure monitor at the end of the study. Liver fibrosis was evaluated by histology, biochemical determination of collagen and analysis of profibrogenic gene expression by qRT-PCR.

[6] = tested on: TAA-induced liver fibrosis; test: TAA-induced liver fibrosis; details: in vivo

| Molecule | TGF-β1-induced responses in RNA levels of αSMA, COL1α1, TIMP1, and lumican [1] | EC50 [2] [nM] | EC50 [3] [nM] | synthesis rates of extracellular matrix proteins (Col1a1, Col1a3, and Col1a5) ([4]; Example 3) | blood glucose and insulin levels ([4]; additional studies) | relative hydroxyproline levels ([4]; additional studies, FIG. 30) | reduction of hepatic collagen deposition (hydroxyproline levels) ([5]; 6 weeks treatment, vs control group) [%] | portal venous pressure (PVP) ([5]; end of study, control 10.1±0.2) [mmHg] | fibrosis progression in Mdr2^−/− mice ([5]; mouse, in vivo) | TAA-induced fibrosis progression [6] |
| --- | --- | --- | --- | --- | --- | --- | --- | --- | --- | --- |
| Cc1cc(F)c(C(=O)Nc2cccc(-c3nncn3C(C)C)n2)cc1-n1cnc(C2CC2)c1 [Compound 3] | blocked or inhibited | 18.9 | 11.6 |  |  |  |  |  |  |  |
| B1 |  |  |  | affected | did not affect | did not result in a decrease | 38 | 8.36±0.23 | blocked | blocked |
